Experimental data published in the nanobody polyreactivity screen of Harvey et al. (2022).

Assay: yeast display, Sf9 membrane polyspecificity reagent, FACS + sequencing; frameworks hold sequencing errors
Summary of the method: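 In a synthetic yeast display library (Saccharomyces cerevisiae BJ5465), nanobody expression was induced with galactose for 36–48 hours. FACS gates were set low and high (top ~1%) using anti-HA fluorescence for expression and streptavidin fluorescence for binding of the Sf9 membrane reagent. Each polyreactivity label is drawn from the gate of origin.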

| Sequence | polyreactivity (PSR sort gate) |
| --- | --- |
| QVQLVESGGGLVQAGGSDRLSCAASGNTFYPNAMGWYRPAPGKERELVAAITTSGGTTYYADSVKGRFTISRDNAKNTVYLQMNSLKPEDTAVYYCAAYWSRDKYDYWGQGTQVTVSS | low polyreactivity |
| QVQLVESGGGLVQAGGSFRLTCAASGRIFSPNAMGWYRQATGKEREFVAAINDRGGNTYYADSVKGRFTISRDNAKNTVYLQMNSLKPEDTAVYYCAATVTVFYTRYYYWGQGTQVTVSS | high polyreactivity |
| QVQLVESGGGLVQAGGSHRFSCAASGFTVWEYAMGLYRQAPGKERELVAAISRGTSTYYADSVKGRFTISRDNAKNTVYLQMNSLKPEDTAVYYCAAAPSYYPARHGYWGQGSQVTVSS | low polyreactivity |
| QVQLVESGGGLVQAGGSHRLICAASGSTFNFNVMGWYRQEPGKERELDAAISSSGGNTYYADSVKGRFTISRDNAKNTVYLQMNSLKPEDTAVYYCADEYEEWYSVFLYDYWGQGTQVTVSS | high polyreactivity |
| QVQLVESGGGLVQAGGSHRLRCAASGRIFWSNTMGWYRQAPGKERELVAAISGRGGSTYYADSVKGRFTISRDNAKNTVYLQMNSLKPEDTAVYYCAARYPAYYEAYDYWGQGTQVTVSS | low polyreactivity |
| QVQLVESGGGLVQAGGSHRLRCAAYGFIFIYAMGRYRQAPGKQRELVASIESGVSTDYADSVKGRFTISRDNAKNSVYFQMNSLKQEDTAVYYCAADQWSSLNYDYWGQGSQVTVSS | low polyreactivity |
| QVQLVESGGGLVQAGGSHRLSCAASGFIFRWYAMGWYRQAPGKERELVAAISRSGDSTYYADSVKGRFTISRDNAKNTVYLQMNSLKPDDTAVYYCAADDRYYTYGYDYWGQGTQVTVSS | low polyreactivity |
| QVQLVESGGGLVQAGGSHRLSCAASGFTFGRYPMGWYRQAPGKERELVAAISSSGSSTYYSDSVKGRFTISRDNAKNTVYLQMNSLKQEDTAVYYCAAAIYVSDRHTYNYWGQGSQVTVSS | high polyreactivity |
| QVQLVESGGGLVQAGGSHRLSCAASGFTFTHYPMGWYRQAPGKERELVAAISTSGGSTYYADSVKGRFTISRDNAKNSVYLQMNSLKPEDTAVYYCAARRDGWVQWGYYYWGQGTQVTVSS | low polyreactivity |
| QVQLVESGGGLVQAGGSHRLSCAASGIIFRGYPMGWYRPAPGIERELVASITRRRGSTRYADSVKGRFTISRDNAKNTVYLQMNSLKPEDTAVYYCAAVGVGKTSTAYGYWGQGTQVTVSS | high polyreactivity |
| QVQLVESGGGLVQAGGSHRLSCAASGLTFRRNAMGWYRQAPGKERELVAAISGSGGSTYYADSVKGRFTISRDNAKNTVYLQMNSLKPEDTAVYYCAADDGIVAYGYWGQGTQVTVSS | high polyreactivity |
| QVQLVESGGGLVQAGGSHRLSCAASGLTLQRYTLGSYRQAPGKQSELVAAISRSGGGTYYADSVKGRFTISRDNAKNTVYLQMNSVKPEDTAVYYCAARGYTSYKHFGYWGQGTQVTVSS | high polyreactivity |
| QVQLVESGGGLVQAGGSHRLSCAASGRIFAHNAMGWYSQAPGKERELVAAITWSGGSTYYADSVKGRFTISRDNAKNTVYLQMNSLKPEDTAVYYCNTDSHGHLYNYWGQGTQVTVSS | low polyreactivity |
| QVQLVESGGGLVQAGGSHRLSCAASGRIFALNAMGWYRQAPGKERELVDAIDTSSGDTYYADSVKGRFTISRDNAKNTVNLQMNCLKPEDTAVYYCAAEGLSPYAYVFSNYDYWGQGTQVTVSS | low polyreactivity |
| QVQLVESGGGLVQAGGSHRLSCAASGRIFGTYTMGWYRHAPGKERELVASIRFGGSTYYADSVKGRYTISRDNAKNTVYLQMNSLKPEDTAVYYCNRVYGYNRRYGYWGQGTQVTVSS | high polyreactivity |
| QVQLVESGGGLVQAGGSHRLSCAASGRIFSDYAMGWYRQAPGKERELVAAITRDGSTNYADSVKGLFTISRDNAKNTVYLQLNSLKPEDTAVYYCAAEGRRGGKDYDYWGQGTQVTVSS | high polyreactivity |
| QVQLVESGGGLVQAGGSHRLSCAASGRIFSPYAMGWYRRAPGKERELVAAISYDDGITYYADSVKGRFTISRDNAKNTVYLQMNSLKPEDTAVYYCAADCVTRPAGDYWGQGTQVTVSS | low polyreactivity |
| QVQLVESGGGLVQAGGSHRLSCAASGRIIWWYAMGWYRQAPGKEREFVASISSTGSTSYADSVKGRFTISRDNAKITVYFQMNILKPEDTAVYYCAKEGIRHQDYNLSNDYWGQGTHVTVSS | low polyreactivity |
| QVQLVESGGGLVQAGGSHRLSCAASGRTFGYYAMGWYRQAPGKEREFVAAISWSGGSTYYADTVKGRFTISRDNAKNTVYLEMNSLKPEYTAVYYCATDTTYYAGSWYGYWGQGTQVTVSS | low polyreactivity |
| QVQLVESGGGLVQAGGSHRLSCAASGSIFLFNAMGWYRQAPGKERELVAAITSPTARTYYADSVKGRFTISRDIAKNTVYLQMNSLKPEDTAVYYCAARYRYAYGYGRGYSWGQGTQVTVSS | high polyreactivity |
| QVQLVESGGGLVQAGGSHRLSCAASGSIFNLYTMGWYIQAPGKERELVAAIRWSGGRTYYADSVKGRFTISRDNAKNTVYLQMNSLKAEDTAVYYCAVRRVVARYDHWGQGTQVTVSS | low polyreactivity |
| QVQLVESGGGLVQAGGSHRLSCAASGSIFPSYAKGWYRQAPGKERELVATIGRGGTTNYADSVKGRFTISRDNAKNTVYLQMNSLKPEDTAVYYCNAERIWRYKYGYDYWGQGTQVTVSS | high polyreactivity |

| Sequence | polyreactivity (PSR sort gate) |
| --- | --- |
| QVQLVESGGGLVQAGGSHRLSCAASGSIFTAYALGWYRQATGKARELVAAIDVSGDSTYYADSVKGRFTISRDNAKKTVYLQMNSLKPEDTAVYYCKAEYRVNKEYDYWGQGTQVTVSS | low polyreactivity |
| QVQLVESGGGLVQAGGSHRLSCAASGSIFYAYAMGWYRQAPGKERELVAAITGSGGRTYYADSVKGRFTISRDNAKNTVYLQMNSLKPEDTAVYYCNAYYYRGSSYGYWGQGTQVTVSS | high polyreactivity |
| QVQLVESGGGLVQAGGSHRLSCAASGSIFYYYTMGWYRQAPGKERELVASITGGGSTYYADSVKGRFTISRDHAKNTVYLQMNSLKPEDTAVYYCAAYSLRPRWRREYDYWGQGTQVTVSS | high polyreactivity |
| QVQLVESGGGLVQAGGSHRLSCAASGSTFDYYAMGWYRQAPGKEREFVASINWNGARTYYADSVKGRFTNSRDNAKNTVYLQMNSLKPEDTAVYYCAKISRTYYRYDYWGQGTQVTVSS | high polyreactivity |
| QVQLVESGGGLVQAGGSHRLSCAASGSTFRYYPMGWYRQAPGKERELVARITSRAGRTYYADSVKGRFTISRDNAKNTVYLQMNSVKPEDTAVYYCNANRFRRYDWGQGTQVTVSS | high polyreactivity |
| QVQLVESGGGLVQAGGSHRLSCAASGSTFSWNTMGWYRQAPGKERELVASITRSDGSTYADSEKGRFTISRDNAKNTVYLQMNSLKPEDTAVYYCNADPYLYLYLNYDYWGQGTQVTVSS | low polyreactivity |
| QVQLVESGGGLVQAGGSHRLSCAASGSTLSSYAMGWYRQAPGKERELVAAISSSSGSTYYADSVKGRFTISRDNAKNTVYLQMNSLKPEDTAVYYCAADFRYWGQGTQVTVSS | low polyreactivity |
| QVQLVESGGGLVQAGGSHRLSCAASGTTIDYYAMGWYRQAPGKERELVAAISWSGGSTYYADSVKGRFTFSRDNAKNTVYLQMNSLKPEDTAVYYCAADSAFYTGSDYGWSDYDYWGQGTQVTVSS | low polyreactivity |
| QVQLVESGGGLVQAGGSHRLSCAASGYTFARNAMGCDRQAPGKDRELVAAINWSGTNTYYADSVKGRFTISRDSAMNTVYLQMNSLKPEDTAVYYCAKDLYFSGYEFDYWGQGTQVTVSS | low polyreactivity |
| QVQLVESGGGLVQAGGSHRLSCAASGYTFARYAMGWYRQAPGKERELVAAISRSGGGTYYADSVKGRFTISRDNAKNTVYLQMNSLKPEDTAVYYCATDRVQGLGRFDYWGQGTQVTVSS | high polyreactivity |
| QVQLVESGGGLVQAGGSHRLSCAATGIIFARNAMGWYRQAPGKERELVAGINGGRTNYADSVKGRFTISRDNAKNTVYLQMNSLKPEDTAVYYCAARLGRVKYDHWGQGTQVTVSS | high polyreactivity |
| QVQLVESGGGLVQAGGSHRLSCDASGRIFGPYAMGWYRQAPGKESELVATISWRGARTYYADSVKGRFTISRDNAKNTVYLQMNSLKPEDTAVDYCAATFYYSARFDYWGQGTQVTVSS | high polyreactivity |
| QVQLVESGGGLVQAGGSHRLSCSASGRIFGLYAMGWYRQAPGKERELVAAITSSTGSTYYADSVKGRFTISRDNAKNTVYLQMNSLKPEDTAVYYCAADLYSPSIYGYIYYTWLDYWGQGTQVTVSS | high polyreactivity |
| QVQLVESGGGLVQAGGSHRLSSAASARTFQDNPMGWYRQAPGKERELVAAISWRGGSTNYADSVKGRFTITRDNAKNTVYLQMNSLKPEDTAVYYCTRDRRKYGKLDYWGQGTQVTVSS | low polyreactivity |
| QVQLVESGGGLVQAGGSHSLSCAASGSTFKHYAMGWYRQAPGKERELVAAISWGGVNTDYADSVKGRFTISRDNAKNTVYLQMNSLNPEDTAVYYCAAGRWSVGTYDYWGQGTQVTVSS | low polyreactivity |
| QVQLVESGGGLVQAGGSIPLSCAASGIIFYYNTMGWYRQAPGKERELVATSTASDGSTYADSVKGRFTISSDNAKNTVYLQMNRLKPEDTAVYYCNADTRTQGPFSAPYYREMNYWGQGSQVTVSS | low polyreactivity |
| QVQLVESGGGLVQAGGSIRLSCAASGFIFYVYAMGRSRQAPGKERELVAAISGGGDSTYYADSVKGRFTTSRDNAKNTVYLQMNSLKPEDTAVYYCATRRYPEVVNGESGYWGQGTQVTVSS | low polyreactivity |
| QVQLVESGGGLVQAGGSIRLSCAASGFTITHYAMGWYRQAPGKERELVAAISASGGSTYYADSVKGRFTISRDNAKYTVYVQMNSLKPEDTAVYYCAATWDYRRGRYPYDYWGQGTQVTVSS | high polyreactivity |
| QVQLVESGGGLVQAGGSIRLSCAASGGTFGYYVMGWYRQAPRKERELVAAITSGGSTKYADSVKGRFTISRDNAKNTVYLQMNSLKPEDTAVYYCAADVTRREPYQSYDYWGQGTQVTVSS | low polyreactivity |
| QVQLVESGGGLVQAGGSIRLSCAASGNTFRWYAMGWYRQAPGKEREFVAAISSSGGSTYYADSVKGRFTISRDNAKNTVYLQMNSLKPEDTAVYYCNAASVTRHVSFATDYEYWGQGTQVTVSS | high polyreactivity |
| QVQLVESGGGLVQAGGSIRLSCAASGNTFVLYTMGWYRQAPGKERELVAAISGRGTNTYYADSVKGRFTISRDNAKNTVYLQMNSLKPEDTAVYYCAARYKTLVTDYEYWGQGTQVTVSS | high polyreactivity |
